Reference: patent US20210395392A1 (Bristol-Myers Squibb, published 2021)

T1: Recombinant soluble extracellular domain of cynomolgus monkey MerTK (cynomolgus monkey, UniProt Q12866 21-505 (human entry))
T1 construct: SPR analyte; also called cMerTK; Cynomolgus MerTK
T1 chain: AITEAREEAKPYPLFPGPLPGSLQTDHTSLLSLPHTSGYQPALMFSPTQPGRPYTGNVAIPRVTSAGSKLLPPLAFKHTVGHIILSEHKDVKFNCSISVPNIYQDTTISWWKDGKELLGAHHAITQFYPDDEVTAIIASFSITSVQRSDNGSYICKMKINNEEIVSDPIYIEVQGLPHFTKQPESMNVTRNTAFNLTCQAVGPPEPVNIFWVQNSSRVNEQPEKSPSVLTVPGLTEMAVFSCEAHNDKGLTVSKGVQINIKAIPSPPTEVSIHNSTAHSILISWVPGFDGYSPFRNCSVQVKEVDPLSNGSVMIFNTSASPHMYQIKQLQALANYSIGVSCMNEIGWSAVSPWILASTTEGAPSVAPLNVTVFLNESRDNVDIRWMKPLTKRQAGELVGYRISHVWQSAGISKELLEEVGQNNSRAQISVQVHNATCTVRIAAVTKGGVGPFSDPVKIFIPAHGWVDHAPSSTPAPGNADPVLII

T2: Recombinant soluble extracellular domain of human MerTK (human, UniProt Q12866 21-505)
T2 construct: SPR analyte; also called hMerTK
T2 sequence: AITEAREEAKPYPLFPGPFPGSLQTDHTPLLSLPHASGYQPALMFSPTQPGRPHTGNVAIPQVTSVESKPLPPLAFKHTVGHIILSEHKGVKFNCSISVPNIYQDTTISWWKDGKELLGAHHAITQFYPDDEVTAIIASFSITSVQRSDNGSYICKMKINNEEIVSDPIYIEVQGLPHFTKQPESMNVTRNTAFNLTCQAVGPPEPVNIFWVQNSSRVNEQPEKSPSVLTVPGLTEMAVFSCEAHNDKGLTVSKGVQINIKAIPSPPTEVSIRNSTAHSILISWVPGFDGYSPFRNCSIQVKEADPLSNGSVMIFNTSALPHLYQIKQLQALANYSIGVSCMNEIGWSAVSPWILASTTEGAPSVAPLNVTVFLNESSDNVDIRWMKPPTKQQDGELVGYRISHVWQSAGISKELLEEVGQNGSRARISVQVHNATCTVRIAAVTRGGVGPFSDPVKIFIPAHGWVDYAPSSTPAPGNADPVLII

T3: Human MerTK on hMerTK-expressing cells (human, UniProt Q12866 21-999)
T3 sequence: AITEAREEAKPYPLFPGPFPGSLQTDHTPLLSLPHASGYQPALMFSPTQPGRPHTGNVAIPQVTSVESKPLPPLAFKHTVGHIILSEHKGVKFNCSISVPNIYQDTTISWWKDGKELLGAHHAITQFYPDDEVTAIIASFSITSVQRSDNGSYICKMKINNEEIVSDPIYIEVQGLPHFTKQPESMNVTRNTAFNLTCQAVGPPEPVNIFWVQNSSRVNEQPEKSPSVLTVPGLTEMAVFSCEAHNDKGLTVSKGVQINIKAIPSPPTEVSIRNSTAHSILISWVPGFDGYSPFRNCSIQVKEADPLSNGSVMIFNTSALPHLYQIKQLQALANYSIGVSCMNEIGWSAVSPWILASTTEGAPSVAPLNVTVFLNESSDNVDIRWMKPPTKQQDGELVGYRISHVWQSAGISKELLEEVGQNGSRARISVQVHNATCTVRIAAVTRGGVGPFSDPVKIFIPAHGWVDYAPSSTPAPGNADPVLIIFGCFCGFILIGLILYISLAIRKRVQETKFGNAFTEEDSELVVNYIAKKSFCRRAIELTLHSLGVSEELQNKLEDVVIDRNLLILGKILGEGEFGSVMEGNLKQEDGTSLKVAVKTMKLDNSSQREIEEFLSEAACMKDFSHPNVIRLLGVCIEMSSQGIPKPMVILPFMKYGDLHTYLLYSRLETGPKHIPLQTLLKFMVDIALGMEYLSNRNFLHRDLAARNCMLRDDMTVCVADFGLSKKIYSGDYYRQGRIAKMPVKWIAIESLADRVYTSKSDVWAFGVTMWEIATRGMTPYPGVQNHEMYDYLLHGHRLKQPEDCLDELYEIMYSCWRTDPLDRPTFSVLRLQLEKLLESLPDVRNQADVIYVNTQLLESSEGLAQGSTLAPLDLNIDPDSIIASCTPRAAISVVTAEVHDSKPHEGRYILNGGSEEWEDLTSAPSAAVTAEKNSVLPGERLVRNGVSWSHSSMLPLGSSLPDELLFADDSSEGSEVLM

T4: Recombinant soluble extracellular domain of mouse MerTK (mouse, UniProt Q60805 19-497)
T4 construct: SPR analyte; also called mMerTK
T4 sequence: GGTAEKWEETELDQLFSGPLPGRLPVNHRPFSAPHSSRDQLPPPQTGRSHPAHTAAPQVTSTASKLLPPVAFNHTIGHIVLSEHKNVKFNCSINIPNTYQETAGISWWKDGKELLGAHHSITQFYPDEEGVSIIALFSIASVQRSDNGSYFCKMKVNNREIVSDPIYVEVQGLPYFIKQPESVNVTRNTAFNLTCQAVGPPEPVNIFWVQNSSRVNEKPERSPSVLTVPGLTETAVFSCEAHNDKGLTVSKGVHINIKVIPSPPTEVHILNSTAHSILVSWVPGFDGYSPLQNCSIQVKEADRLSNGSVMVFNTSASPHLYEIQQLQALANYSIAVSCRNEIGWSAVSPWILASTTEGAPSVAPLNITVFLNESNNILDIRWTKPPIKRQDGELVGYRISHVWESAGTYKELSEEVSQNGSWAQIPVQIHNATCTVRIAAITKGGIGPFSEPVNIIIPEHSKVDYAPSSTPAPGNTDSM

B1: HuMAb 4K10 (antibody, human IgG1, kappa, V domains shown)
VH: QVQLQQWGAGLLKPSETLSLTCAVYGGSFSGYYWSWLRQPPGKGLEWIGEISHSGSTNYNPSLKSRVTISVDTSKNQFSLKLSSVTAADTAVYYCARALSRYWYFDLWGRGTLVTVSS
VL: EIVLTQSPATLSLSPGERATLSCRASQSASNYLAWYQQKPGQAPRLLIYDASNRATGIPARFSGSGSGTDFTLTISSLEPEDFAVYYCYQRSQWPISFGQGTRLEIKR
notes: Human anti-hMerTK mAb, Bin 3
B2: HuMAb 1B4 (antibody, human IgG1, kappa, V domains shown)
VH: QLQLQESGPGLVKPSETLSLTCAVSGYSISSGNYWGWIRQSPGKGLEWIGSVDHSGSTYYSPSLKSRVTISVDTSKNQFSLKLNSVTAADTADYYCARNTMIRGVMDWFDPWGQGTLVTVSS
VL: AIQLTQSPSSLSASVGDRVTITCRASQGISSALAWYQQKPGKAPKVLIYDASSLESGVPSRFSGSGSGTDFTLTISSLQPEDFATYYCQQFRSYPTFGQGTKVEIKR
notes: Human anti-hMerTK mAb, Bin 1
B3: HuMAb 22I16 (antibody, human IgG1, kappa, V domains shown)
VH: EVQLVESGGGLVQPGGSLRLSCAASGFTFSSYSMNWVRQAPGKGLEWVSYIISGSDTIFYADSVKGRFTISRDNAKNSLYLQMNSLRDEDTAVYYCARDETVVRGVINYFDYWGQGTLVTVSS
VL: AIQLTQSPSSLSASVGDRVTITCRSSQGISSALAWYQQKPGKAPKLLIYDASSLESGVPSRFSGSGSGTDFTLTISSLQPEDFATYYCQQFISYPTFGQGTRLEIKR
notes: Human anti-hMerTK mAb, Bin 1; also called 22116
B4: HuMAb 25J60 (antibody, human IgG1, kappa, V domains shown)
VH: QVQLVQSGAEVKKPGASVKVSCKTSGNTQIRYYMYWVRQAPGQGLEWMGILNPNQDQTTYAQKFQGRVTMTRDTSTSTVYMELSSLRSEDTAVYYCATTYRYYMDVWGQGTTVTVSS
VL: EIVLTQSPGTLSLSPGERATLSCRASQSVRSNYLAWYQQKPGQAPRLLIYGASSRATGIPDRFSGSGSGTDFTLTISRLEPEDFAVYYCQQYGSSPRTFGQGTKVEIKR
notes: Human anti-hMerTK mAb, Bin 2, derived from HuMAb 25B10 by optimization
B5: HuMAb 25J80 (antibody, human IgG1, kappa, V domains shown)
VH: QVQLVQSGAEVKKPGASVKVSCKTSGRTFIRYYMHWVRQAPGQGLEWMGIIWPNGDQTTYAQKFQGRVTMTRDTSTSTVYMELSSLRSEDTAVYYCATTYKYAMDVWGQGTTVTVSS
VL: EIVLTQSPGTLSLSPGERATLSCRASQSVRSNYLAWYQQKPGQAPRLLIYGASSRATGIPDRFSGSGSGTDFTLTISRLEPEDFAVYYCQQYESPPRTFGQGTKVEIKR
notes: as for B4
B6: HuMAb 8N42 (antibody, V domains shown)
VH: QVQLQQWGAGLLKPSETLSLTCAVYGGSFSIYYWSWIRQPPGKGLELIGEINDEGNTNYNPSLKSRVTISVDTSKNQFSLKLSSVTAADTAVYYCARGGTGDIHAFDIWGQGTMVTVSS
VL: DIQMTQSPSSLSASVGDRVTITCRASQGISKWLAWYQQKPEKAPKSLIYAASSLQSGVPSRFSGSGSGTDFTLTISSLQPEDFATYYCQQYNSYPWTFGQGTKVEIKR
notes: Human anti-hMerTK mAb, Bin 1

Key:
[1] = biological target: T1, Recombinant soluble extracellular …; test: SPR, mAb captured, soluble MerTK ECD as analyte, 37 C
Description: (§1) MerTK Abs were captured on the chip. Recombinant soluble forms of the extracellular domains of human, cynomolgus monkey, and mouse MerTK polypeptide were injected as analytes at multiple concentrations each. The resulting sensorgrams were double-referenced and fitted to a 1:1 Langmuir binding model with mass transport.

[2] = biological target: T2, Recombinant soluble extracellular …; test: as above
Description: as §1

[3] = biological target: T3, Human MerTK on hMerTK-expressing cells; test: cell-based or functional assay
[4] = biological target: T4, Recombinant soluble extracellular …; test: summary sentence of the description; assay not named

Row | Binder | Kd [1] [nM] | koff [1] [s⁻¹] | kon [1] [M⁻¹ s⁻¹] | t1/2 [1] [min] | Kd [2] [nM] | koff [2] [s⁻¹] | kon [2] [M⁻¹ s⁻¹] | t1/2 [2] [min] | Inhibition of Efferocytosis IC50 [3] [nM] | Signaling Assay, hMerTK with Gas6, pSTAT1 IC50 (nM) [3] [nM] | binding result [4] | Signaling Assay, hMerTK without Gas6, pSTAT1 IC50 (nM) [3] [nM]
1 | B1 | 31.3 | 0.00379 | 121000 | 3 | 27.8 | 0.00336 | 121000 | 3.4 | > 10 | 5.42 | no binding | –
2 | B2 | 54.9 | 0.00796 | 145000 | 1.5 | 34.4 | 0.00844 | 250000 | 1.4 | 0.072 | 0.33 | no binding | > 100
3 | B3 | 24.7 | 0.00126 | 50900 | 10.2 | 10.6 | 0.000775 | 73500 | 14.9 | 0.352 | 3.41 | no binding | > 100
4 | B4 | 2.5 | 0.00099 | 400000 | 11.7 | 2.3 | 0.000975 | 421000 | 11.9 | 0.051 | 0.093 | no binding | > 100
5 | B5 | 4.5 | 0.00124 | 274000 | 4.5 | 4.1 | 0.00123 | 297000 | 9.6 | 0.093 | 0.227 | no binding | > 100
6 | B6 | 14 | 0.0014 | 100000 | 8.3 | 5.7 | 0.00168 | 299000 | 6.9 | 0.047 | 0.572 | no binding | > 100
